Assay results from US20240209043A1 (ORAL SUBSIDIARY SUN YAT SEN UNIVERSITY HOSPITAL, published 2024).
Where no end group is shown, it is not given here.

B1: nABP786 (peptide)
chain 1: SHHHRLKLKEIANCSPTQFKC
chain 2: SHHHRL
modifications: cysteine pairing not given here; also: lactam at chain A 7 at chain B 6 to a chain's C-terminus
B2: nABP386 (peptide)
chain 1: SRLKEIANSPTQFWRMVARNTLGNHAKQSLNIEHA
chain 2: SHHHRL
modifications: also: bond at chain A 27 at chain B 6 to a chain's C-terminus
notes: Branched synthetic peptide (Fmoc solid-phase synthesis)
B3: nABP486 (peptide)
chain 1: SHHHRLKLKEIANSPTQFWRMVARNTLGNGAKQSLNIEHA
chain 2: SHHHRL
modifications: also: lactam at chain A 7 at chain B 6 to a chain's C-terminus
notes: as for B2

Tests used:
[1] = biological target: T1, Recombinant Human PD-1 protein (PD1-H5221, Acro Biosystems) (human, UniProt Q15116 25-167); experiment: SPR (Biacore T100), recombinant human PD-1 coupled to CM5 chip, peptide as analyte
T1 construct: Bought reagent, amine-coupled to a CM5 chip for SPR
Experimental: (§1) The affinity of the peptides was tested with Biocore T100 through surface plasmon resonance (SPR) technique. […] Finally, the affinities (Kd-value) of the peptides were calculated by fitting curves in the sensor diagram in Biacore software.

[2] = biological target: T2, Recombinant Human PD-L1 protein (PD1-H82F3, Acro Biosystems) (human, UniProt Q9NZQ7 19-238); experiment: SPR (Biacore T100), recombinant human PD-L1 coupled to CM5 chip, peptide as analyte
T2 construct: Bought reagent
Experimental: as §1

[3] = biological target: T1, Recombinant Human PD-1 protein …; experiment: SPR (Biacore T100), recombinant human PD-1 coupled to a CM5 chip, peptide as analyte at 0.03125-2 µM
Experimental: as §1

[4] = biological target: T2, Recombinant Human PD-L1 protein …; experiment: SPR (Biacore T100), recombinant human PD-L1 coupled to a CM5 chip, peptide as analyte at 0.03125-2 µM
Experimental: as §1

[5] = biological target: T1, Recombinant Human PD-1 protein …; experiment: SPR (Biacore T100), recombinant human PD-1 coupled to a CM5 chip, peptide as analyte at 0.3125-20 µM
Experimental: as §1

[6] = biological target: T3, PD-1 on the surface of cells (Jurkat T cells stimulated with PMA and ionomycin; iCIKs) (human, UniProt Q15116 25-288); experiment: flow cytometry blocking assay: peptide mixed with recombinant human PD-L1, PD-L1 binding to PD-1-expressing stimulated Jurkat T cells read with APC streptavidin
T3 construct: whole, on cells; Endogenous PD-1 of human cells; also called PD-1 on the surface of Jurkat T cells; PD-1-expressing Jurkat T cells
Experimental: (§2) The Jurkat T cells were divided into two groups, an experimental group and a control group, wherein in the experimental group, 50 ng/ml of Phorbol 12-myristate 13-acetate (PAM) and 1 ug/ml of Ionomycin Calcium Salt (Ionomycin) were used to stimulate the cells, and in the control group, Jurkat T cells were unstimulated. The cells (5×10⁵) were collected in each tube, and washed once with FACS buffer (PBS with 2% BSA). […] FACS buffer was used for washing the cells three times, and 0.12 ug/ml of APC Streptavidin (405207, Biolegend) was added to each tube and the incubation was performed for 1 hour at 4° C., and then the cells were washed three times with FACS buffer again, and 500 μl of PBS was added to resuspend the cells, which were further transferred to flow tubes and analyzed by flow cytometry.

[7] = biological target: T3, PD-1 on the surface of cells (Jurkat T …); experiment: flow cytometry blocking assay: peptide mixed with recombinant human PD-L1, PD-L1 binding to PD-1-expressing stimulated Jurkat T cells read with APC streptavidin; nABP486 also binds PD-L1 itself (Figure 2D)
Experimental: as §2

T3 sequence (Q15116 25-288): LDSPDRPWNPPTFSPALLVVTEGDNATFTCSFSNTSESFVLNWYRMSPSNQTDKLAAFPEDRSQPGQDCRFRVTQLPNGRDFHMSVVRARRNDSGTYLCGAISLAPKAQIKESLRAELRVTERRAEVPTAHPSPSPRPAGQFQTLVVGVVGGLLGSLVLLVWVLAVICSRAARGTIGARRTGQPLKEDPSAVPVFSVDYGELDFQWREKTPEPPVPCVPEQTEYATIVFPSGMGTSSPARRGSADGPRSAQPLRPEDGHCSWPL
T1 sequence (Q15116 25-167 limits assumed): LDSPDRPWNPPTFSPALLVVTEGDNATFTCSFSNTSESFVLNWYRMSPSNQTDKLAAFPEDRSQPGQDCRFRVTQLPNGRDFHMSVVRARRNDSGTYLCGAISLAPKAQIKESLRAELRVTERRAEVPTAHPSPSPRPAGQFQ
T2 sequence (Q9NZQ7 19-238 limits assumed): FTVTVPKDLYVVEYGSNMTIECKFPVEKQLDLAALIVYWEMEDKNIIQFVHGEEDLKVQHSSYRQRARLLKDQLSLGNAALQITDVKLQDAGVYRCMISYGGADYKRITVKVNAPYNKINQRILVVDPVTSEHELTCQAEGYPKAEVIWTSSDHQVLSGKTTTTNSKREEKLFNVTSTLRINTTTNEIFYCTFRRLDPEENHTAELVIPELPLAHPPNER

Binder	Kd [1] [nM]	Kd [2] [nM]	koff [3] [s⁻¹]	kon [3] [M⁻¹ s⁻¹]	koff [4] [s⁻¹]	kon [4] [M⁻¹ s⁻¹]	Kd [5] [µM]	IC50 [6] [µM]	Kd [4] [nM]	IC50 [7] [nM]
B1	5.84	16.7	0.000453	77600	0.000486	29000				
SRLKEIANSPTQFWRMVARNTLGGAKQSLNIEHARL (not fully specified, also called PD-1-nABP284) [nABP284]							11.8	9.61		
B2	75.1		0.00293	39000				3.42		
B3	11.9	54.2	0.00589	496000	0.00204	38900			52.4	2580
